Source: patent US9527913B2, “Humanized pan-HER antibody compositions” (Symphogen A/S, priority 2012, dated 2016)
Values belong to the molecule of their own block, whether it stands above or below them.

Experiments:
[1] = tested on: MDA-MB-175-VII cells; experiment: WST-1 metabolic activity, parental and pertuzumab resistant cells (Example 5); type: cell-based, human; settings: 96 hours
Description: Cells were split once or twice a week in order to keep cells in exponential growth. The level of resistance was tested every month in a WST-1 viability assay as described in Example 2, until a pool of resistant cells was established.
Metabolic activity was determined after 96 hours incubation using a similar WST-1 assay as described in Example 2.

[2] = tested on: EGFR, HER2 and HER3 in OVCAR-8 cells; experiment: Western blot of EGFR, HER2 and HER3 in whole cell lysates (Example 6); type: cell-based, human; settings: OVCAR-8, 20 μg/ml, 48 hour
[3] = tested on: EGFR, HER2 and HER3 from humans, cynomolgus monkeys and mice, human and murine HER4; experiment: Cross-reactivity ELISA with coated antigens; type: binding, mouse; settings: OD at 450 nm, 40 nM antibody, compared to chimeric parent
Description: Antibody-antigen binding was measured by ELISA with coated antigens. Human antigens were obtained from Sino Biologicals. All other antigens were produced in-house by transient expression in CHO or HEK293 cells. Chimeric and humanized antibodies, as well as an isotype control antibody, were incubated with the coated antigens at different concentrations. After wash, bound antibodies were detected by HRP-(horse radish peroxidase)-conjugated secondary antibodies. The OD signal from 40 nM antibody, measured at 450 nm using an ELISA reader, was scored from negative (−; OD<0.1) to strongly positive (+++; OD>2.5).

[4] = tested on: A431NS, H358, FaDu, OE19, BT474, MDA-MB-175 VII, MCF-7, N87, HN5, MFE-280 cancer cell lines; experiment: Viability assay (WST-1) of humanized variants with partner antibody and of six-antibody mixtures; type: cell-based, human; settings: two cell lines per variant, 96 hours
Description: Each humanized variant was tested in two cell lines and compared to the parental mixture of two chimeric antibodies and to a negative control antibody. […] In addition, a combination of six humanized variants (11294, 11302, 11249, 11145, 10738 and 11052; Humanized Pan-HER) was tested in a number of cell lines and compared to the combination of the six chimeric antibodies (1277, 1565, 4384, 4517, 5038 and 5082; Chimeric Pan-HER). The cell lines used, N87 gastric, FaDu head and neck, A431NS epidermoid, OE19 esophageal, HN5 head and neck, MDA-MB-175 VII breast and MFE-280 endometrial cancer, were selected on the basis of their previously determined dependency on the HER family receptors.
Prior to performing the viability assay the appropriate antibodies and antibody mixtures were diluted to a final total antibody concentration of 100 μg/ml in appropriate media supplemented with 0.5-2% FBS and 1% P/S (penicillin/streptomycin), yielding a final total antibody concentration of 50 μg/ml in the well containing the highest antibody concentration. A threefold serial dilution of the antibodies was then performed in a 384-well plate, followed by addition of relevant numbers of cells to the experimental wells. The MCF-7 cells were also stimulated with 1 nM heregulin beta. The plates were incubated for 4 days in a humidified incubator at 37° C. WST-1 reagent (Roche Applied Science, Mannheim, Germany) was added to the plates and the plates were incubated for 1-3 h at 37° C. Plates were transferred to an orbital plate shaker for one h and the absorbance was measured at 450 and 620 nm (reference wavelength) using an ELISA reader. The percentage of metabolically active cells (MAC) is calculated as a percentage of the untreated control as follows: […]

[5] = target: T1, human HER3 (Homo sapiens, UniProt P21860); experiment: Kinetic binding analysis by surface plasmon resonance (ProteOn XPR36, IgG capture); settings: Human antigen
T1 construct: against soluble antigen under monovalent conditions; purchased Sino Biologicals
Description: (§1) Kinetic binding analysis of the purified humanized variants was performed on a ProteOn™ XPR36 biosensor (BioRad, USA) employing an IgG capture assay as described by Canziani et al. (Anal. Biochem. (2004) 325:301-307) that allows for measurement of antibody affinities of whole IgG molecules against soluble antigen under monovalent conditions. Briefly, approximately 5000 resonance units (RU) of a monoclonal mouse anti-human IgG Fc antibody (GE Healthcare, Denmark) was conjugated to a GLC chip surface (BioRad, USA) according to the manufacturer's instructions, followed by capture of individual antibodies of the invention or a negative control on the anti-Fc sensor surface. […] Next, 250 μl monovalent antigen (Sino Biologicals) was injected at a flow rate of 50 μl/min in serial threefold dilutions from 100 nM stock to generate response curves. The chip surface was regenerated between cycles by stripping the captured antibody/antigen complexes off the surface with a 10-second injection of 3 M MgCl2 (GE Healthcare, Denmark) repeated three times. Finally, binding responses were fitted to a Langmuir 1:1 binding model for calculation of the on-rate (kon or ka), off-rate (koff or kd) and affinity (KD) constants using double referencing.

[6] = tested on: cynomolgus HER3; experiment: as above; settings: Cynomolgus antigen
Description: as §1

[7] = tested on: EGFR, HER2 and HER3 in H292 cells; experiment: Western blot of EGFR, HER2 and HER3 in whole cell lysates (Example 6); type: cell-based, human; settings: H292, 20 μg/ml, 48 hour
[8] = tested on: cynomolgus EGFR; experiment: Kinetic binding analysis by surface plasmon resonance (ProteOn XPR36, IgG capture); settings: Cynomolgus antigen
Description: as §1

Molecule: pertuzumab
- metabolic activity ([1]; parental MDA-MB-175-VII cells): reduced
- metabolic activity ([1]; pertuzumab resistant MDA-MB-175-VII cells): unaltered

B1: MM-121: anti-HER3 treatment lane in the OVCAR-8 Western blot (antibody, chains of the INN, looked up)
heavy: EVQLLESGGGLVQPGGSLRLSCAASGFTFSHYVMAWVRQAPGKGLEWVSSISSSGGWTLYADSVKGRFTISRDNSKNTLYLQMNSLRAEDTAVYYCTRGLKMATIFDYWGQGTLVTVSSASTKGPSVFPLAPCSRSTSESTAALGCLVKDYFPEPVTVSWNSGALTSGVHTFPAVLQSSGLYSLSSVVTVPSSNFGTQTYTCNVDHKPSNTKVDKTVERKCCVECPPCPAPPVAGPSVFLFPPKPKDTLMISRTPEVTCVVVDVSHEDPEVQFNWYVDGVEVHNAKTKPREEQFNSTFRVVSVLTVVHQDWLNGKEYKCKVSNKGLPAPIEKTISKTKGQPREPQVYTLPPSREEMTKNQVSLTCLVKGFYPSDIAVEWESNGQPENNYKTTPPMLDSDGSFFLYSKLTVDKSRWQQGNVFSCSVMHEALHNHYTQKSLSLSPG
light: QSALTQPASVSGSPGQSITISCTGTSSDVGSYNVVSWYQQHPGKAPKLIIYEVSQRPSGVSNRFSGSKSGNTASLTISGLQTEDEADYYCCSYAGSSIFVIFGGGTKVTVLGQPKAAPSVTLFPPSSEELQANKATLVCLVSDFYPGAVTVAWKADGSPVKVGVETTKPSKQSNNKYAASSYLSLTPEQWKSHRSYSCRVTHEGSTVEKTVAPAECS
- EGFR, HER2 and HER3 levels in whole cell lysates [2]: HER2 up-regulation

B5: antibody 1277: chimeric parent anti-EGFR antibody disclosed in WO 2012/059857; VH SEQ ID NO: 15, light chain SEQ ID NO: 17 (antibody)
VH: RAEVQLVESGGGLVKPGESLKLSCAASGFAFSYSDMSWVRQTPEKRLEWVAYMSSAGDVTFYSDTVKGRFTISRDNAKNTLYLQVSSLKSEDTAIYYCVRHRDVAMDYWGQGTSVTVS
light: LADVVMTQTPLSLPVSLGDQASISCRSSQSLVHSNGNTYLHWYLQKPGQSPKLLIYKVSNRFSGVPDRFSGSGSGTDFTLKISRVEAEDLGVYFCSQSTHVPTFGGGTKLEIKRTVAAPSVFIFPPSDEQLKSGTASVVCLLNNFYPREAKVQWKVDNALQSGNSQESVTEQDSKDSTYSLSSTLTLSKADYEKHKVYACEVTHQGLSSPVTKSFNRGEC
- EGFR, HER2 and HER3 levels in whole cell lysates [7]: HER2 upregulation
- ka [8]: 660000 M⁻¹ s⁻¹
- kd [8]: 0.00039 s⁻¹

The next lines start with results.

- ka [5]: 190000 M⁻¹ s⁻¹
- kd [5]: 0.0002 s⁻¹
- ka [6]: 470000 M⁻¹ s⁻¹
- kd [6]: 0.00034 s⁻¹
B2: antibody 10810: humanized anti-HER3 antibody from chimeric parent 5038; HC SEQ ID NO: 56, LC SEQ ID NO: 57 (antibody, V domains shown)
VH: QVQLQESGPGLVKPSQTLSLTCTVSGYSITSGFYWTWIRQHPGNGLEWIGFISYSGSNNYNPSLKNRVTISVDTSKNQFSLKLSSVTAADTATYYCARGGGYYGNLFDYWGQGTLVTVSS
VL: DIQMTQSPSSLSASVGDRVTITCRPSQDISNYVNWFQQKPGKAPKLLIFHTSRLHSGVPSRFSGSGSGTDFTLTISSLQPEDIATYYCQQGITLPWTFGQGTKVEIK
- cross-reactivity pattern with HER family antigens [3]: binding to the same human and cynomolgus antigen combined with lack of binding to the mouse antigen or to other EGFR family receptors
- anti-proliferative effect in combination with partner antibody, compared to mixture of the two chimeric parent antibodies [4]: highly similar anti-proliferative effects

- ka [8]: 580000 M⁻¹ s⁻¹
- kd [8]: 0.016 s⁻¹
B3: antibody 1565: chimeric parent anti-EGFR antibody disclosed in WO 2012/059857; VH SEQ ID NO: 19, light chain SEQ ID NO: 21 (antibody)
VH: RAEVQLQQSGTELVKPGASVILSCKASGYTFTSYWMQWVKQRPGQGLEWIGNINPSNGGTSFNEEFKSRATLTVDKSSSTAYMQLSSLTSEDSAVYYCARDGGLYDGYYFDFWGQGTTLTVS
light: LANIVMTQSHKFMSTLIGARVSITCKASQDVDTAVAWYQQKPGQSPKLLIYWASTRHTGVPDRFTGSGSGTDFSLTVSNVQSEDLTDYFCQQYSSYPLTFGAGTKLELKRTVAAPSVFIFPPSDEQLKSGTASVVCLLNNFYPREAKVQWKVDNALQSGNSQESVTEQDSKDSTYSLSSTLTLSKADYEKHKVYACEVTHQGLSSPVTKSFNRGEC
- EGFR, HER2 and HER3 levels in whole cell lysates [7]: HER2 upregulation

- ka [5]: 870000 M⁻¹ s⁻¹
- kd [5]: 0.00016 s⁻¹
- ka [6]: 1.3e+06 M⁻¹ s⁻¹
- kd [6]: 0.00026 s⁻¹
B4: antibody 11052: humanized anti-HER3 antibody from chimeric parent 5082; HC SEQ ID NO: 60, LC SEQ ID NO: 61 (antibody, V domains shown)
VH: QVQLQESGPGLVKPSQTLSLTCTVSGYSITSAYYWNWIRQFPGKGVEWMGYIGYSGRNTYNPSLKNRVTISRDTSKNQFSLKLSSVTAADTAVYYCSREGDYGYSDYWGQGTLVTVSS
VL: DIQMTQSPSSLSASVGDRVTVTCRASQDINNYLNWYQQKPGKAVKLLIYYTSRLQSGVPSRFSGSGSGTDYTLTISSLQPEDFATYFCQQSETLPWTFGQGTKLEIK
- cross-reactivity pattern with HER family antigens [3]: binding to the same human and cynomolgus antigen combined with lack of binding to the mouse antigen or to other EGFR family receptors
- anti-proliferative effect in combination with partner antibody, compared to mixture of the two chimeric parent antibodies [4]: highly similar anti-proliferative effects

- ka [5]: 910000 M⁻¹ s⁻¹
- kd [5]: 7.3e-05 s⁻¹
- ka [6]: 1.7e+06 M⁻¹ s⁻¹
- kd [6]: 0.00016 s⁻¹
B6: antibody 5082: chimeric parent anti-HER3 antibody disclosed in WO 2012/059857; VH SEQ ID NO: 35, light chain SEQ ID NO: 37 (antibody)
VH: RAEVQLKESGPGLVKPSQSLSLTCSVTGYSITSAYYWNWIRQFPGNKVEWMGYIGYDGRNTYNPSLKNRISITRDTSKNQFFLKLNSLTTEDTATYYCSREGDYGYSDYWGQGTTLTVS
light: LADIVMTQATSSLSASLGDRVTVSCRASQDINNYLNWYQQKPDGTVKLLIYYTSRLQSGVPSRFSGSGSGIDYSLTISNLEQEDFVTYFCQQSETLPWTFGGGTKLELKRTVAAPSVFIFPPSDEQLKSGTASVVCLLNNFYPREAKVQWKVDNALQSGNSQESVTEQDSKDSTYSLSSTLTLSKADYEKHKVYACEVTHQGLSSPVTKSFNRGEC
- EGFR, HER2 and HER3 levels in whole cell lysates [2]: HER2 up-regulation
